Measured values published in the nanobody polyreactivity screen of Harvey et al. (2022).

test: yeast display, Sf9 membrane polyspecificity reagent, FACS + sequencing; frameworks hold sequencing errors
Method in brief: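 After 36–48 hours of galactose induction, yeast (Saccharomyces cerevisiae BJ5465) displaying a synthetic nanobody library were stained at 4 °C for 1 hour with 10% biotinylated, detergent-solubilized Sf9 membrane reagent. Streptavidin microbeads enriched the stained cells before FACS sorting into low and high (top ~1%) gates on anti-HA and streptavidin fluorescence. Each clone's polyreactivity label reflects its gate of origin.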

Sequence	polyreactivity (PSR sort gate)
QVQLVESGGGLVQAGGSLRLSCAASGFSVYPYAMGWYRQAPGKERELVAAISSSGGSTYYADSVKGRFTISRDNAKNTVYLQMNSLKPEDTAVYYCNKRPQQYRPGYDYWGQGTQVTVSS	high polyreactivity
QVQLVESGGGLVQAGGSLRLSCAASGFTCSTYAMGWYSQAPGKERELVAVISWNGGSTYYADSVKGRFTISRDNANNTVYLQMNSLKPEDTAVYYCDARGSFKQGYWGQGTQVTVSS	high polyreactivity
QVQLVESGGGLVQAGGSLRLSCAASGFTCTRYAMGWYRQAPGKERELVATITGGGRTNYADSVKGRFTISRDNAKNTVYLQMNSLKPEDTADYYCNAKYRVYWGSGKFDYWGQGSQVTVSS	high polyreactivity
QVQLVESGGGLVQAGGSLRLSCAASGFTCTYYAMGWYRQAPGKERELVAAITRGGITNYADSVKGRFTISRDNAKNTVYLQMNSLKPEDTAVYYCAADYWNFNWRYKLYRPYDYWGQGTQVTVSS	high polyreactivity
QVQLVESGGGLVQAGGSLRLSCAASGFTFAFNAMGWYRQAPGKERELVAAISGTVSRTRYADSVKGRFTISRDNAKNTVYLQMNSLKPEDTAVYYCAARGYYRYSYPYQPYRMDYWGQGTQVTVSS	high polyreactivity
QVQLVESGGGLVQAGGSLRLSCAASGFTFAGNAMGWYRQAPGKERELVAGISRRGGNTYYADSVKGRFTISRDNAKNTVYLQMISLKPEDTAVYYCAARARRRYYYWGQGTQVTVSS	high polyreactivity
QVQLVESGGGLVQAGGSLRLSCAASGFTFAGYAMGWYRQAPGKERELVAAISYSGGRTYYADSVKGRFTISRDNEKNTVYLQMNSLKPEDTAVYYCNADPAYYRGYYRQGYDYWGQGTQVTVSS	high polyreactivity
QVQLVESGGGLVQAGGSLRLSCAASGFTFAGYAMGWYRQAPGKERELVAGIRSSGARTYYADSVKGRFTISRDNAKNTVYLQMNSLKPEDTAVYYCAKTDGFYRGYGYWGQGTQVTVSS	low polyreactivity
QVQLVESGGGLVQAGGSLRLSCAASGFTFAKNAMGWYRPAPGKERELVATISRSGGSTYYADSVKGRFTISRDNAKNTVYLQMNSLKPEDTAVYDCAADRSYGVLGNEGGYWGQGTQVTVSS	high polyreactivity
QVQLVESGGGLVQAGGSLRLSCAASGFTFAKYVMGWYRQAPGKERELVAAISFSGGSTYYADSVKGRFTISRDNAKNTVYLQMNSLKPEDTAVYYCAALSDSRWHRFGYWGQGTQVTVSS	high polyreactivity
QVQLVESGGGLVQAGGSLRLSCAASGFTFAMNAMGWYRQAPGKERELVAAITFSGGSTYADSVKGRFTISRDNAKNTVYLQMNSLKPEDTAVYYCNAGGDGVATGYDYWGQGTQVTVSS	low polyreactivity
QVQLVESGGGLVQAGGSLRLSCAASGFTFANPMGWYRQAPGKERELVAAISSGGGSTYYADSVKGRFTISRDNAKNTVYLQMNSLKPEDTAVYYCAAGYGTLDWWEDYWGQGTQVTVSS	high polyreactivity
QVQLVESGGGLVQAGGSLRLSCAASGFTFANYVMGWSRQAPGKERELVAAITTPGGSTSYADSVKGRFTISRDNAKNTVYLQMNSLKPEDTAVYYCNKTTYYPSDYDYWGQGTQETVSS	low polyreactivity
QVQLVESGGGLVQAGGSLRLSCAASGFTFARYAMGWYIQAPGKERELVASISGSGESTYYADSVKGRFTISRDNAKNTVYLQMNSLKPEDTAVYYCAAEGSFLFFSWYWPEYDYWGQGTQVTVSS	high polyreactivity
QVQLVESGGGLVQAGGSLRLSCAASGFTFARYAMGWYRQAPGKERELVAAISWTGARTYYADSVKGRFTISRDNAKNTVYLQMNSLKPEDTAVYYCNAVSGSSNFDYWGQGTQVTVSS	high polyreactivity
QVQLVESGGGLVQAGGSLRLSCAASGFTFARYTRVWSRQAPGKERELVAAISKRGTSTYYADSVKGRFTISRDNAQNTVYLQMNSLKAEDTAVYYCAATPGTGYGDYDYWGQGTQVTVSS	high polyreactivity
QVQLVESGGGLVQAGGSLRLSCAASGFTFARYVMGWSRQAPGKERELVAGITYRVGSTYYADSVKGRFSISRDNAKNTVYLQMNSLKPEDTAVYYCAAYLSTGYYYWGQGTQVTVSS	high polyreactivity
QVQLVESGGGLVQAGGSLRLSCAASGFTFASNAMGWYRQAPWKERELDAGISRTGTTTYYADSVKGRFTISRDNAKNTVYLQMNSLKPEDTAVYYCAASKQAVKYRSQRYYYWGQGTQVTVSS	high polyreactivity
QVQLVESGGGLVQAGGSLRLSCAASGFTFASYAMGCYIQPPGKEMELVAAITWSGGSTYYADSVKGRFTISRDNAKNTVYLQMNSLKPEDTAVYYCNALVIARNIEMDYWGQGTQVTVSS	high polyreactivity
QVQLVESGGGLVQAGGSLRLSCAASGFTFASYAMGWYRQAPGKERELVAAITRRGGSTNYADSVKGRFTISRDNAKNTVFLQMNSLKPEDTAVYYCNALHGVWYPAYDYWGQGTQVTVSS	low polyreactivity
QVQLVESGGGLVQAGGSLRLSCAASGFTFAVYAMGWYRQAPGKERELVAAISRSGTRTYYADSVKGRFTISRDNAKNTVFLQMNSLKPEDTAVYYCAADKYRHGYDYWGQGTQVTVSS	low polyreactivity

Sequence	polyreactivity (PSR sort gate)
QVQLVESGGGLVQAGGSLRLSCAASGFTFAWYAMGWYRQAPGKERELVAAISWSGGRTYYADSVKGRFTISRDNAKNTVYLQMNSLKPEDTAVYYCAALFLYGYVREYDYWGQGTQVTVSS	high polyreactivity
QVQLVESGGGLVQAGGSLRLSCAASGFTFAYIAMGWYRQAPGKERELVAAITVSGGRTYYADTVKGRFTISRDNAKNTVYLQMYSLKPEDTAVYYCAATVRVRTNSWMDYWGQGTQVTVSS	low polyreactivity
QVQLVESGGGLVQAGGSLRLSCAASGFTFAYYAMGWYRPAPGKERELVAAISSGGSTDYADSVKGRFTISRDNAKNTVYLQMNSLKPEDTAVYYCNAVVVRLWYDYDYWGQGTQVTVSS	low polyreactivity
QVQLVESGGGLVQAGGSLRLSCAASGFTFAYYAMGWYRQAPGKERELVAAISSGGGTYYADSVKGRFTISRDNAKNTVYLQMNSLKPEDTAVYYCNAANGRYIGSRYVVYTGFYYWGQGTQVTVSS	high polyreactivity
QVQLVESGGGLVQAGGSLRLSCAASGFTFAYYAMGWYRQAPGKERELVATITSGGRTYYADSVKGRFTISSDNAKNTVYLQMNSLKPEDTAVYYCAATGRSGVLSSYYYWGQGTQVTVSS	high polyreactivity
QVQLVESGGGLVQAGGSLRLSCAASGFTFAYYAMGWYRQAPRKESELVAGISWRGGRTYYADSVKGRFTISRDNAKNTVYLQMNSLKPEDTAVYYCAKQPGNFGRFDYWGQGTQVTVSS	high polyreactivity
QVQLVESGGGLVQAGGSLRLSCAASGFTFDDNAMGWYRQAPGKERELVATISYSDGNTYYADSVKGRFTISRDNAKNTVYLQMNSLIPEDTAVYYCAADDWAVYYIGLDYDYWGQGTQVTVSS	low polyreactivity
QVQLVESGGGLVQAGGSLRLSCAASGFTFDDNAMGWYRQAPGKERELVATISYSDGNTYYADSVKGRFTISRDNAKNTVYLQMNSLKPEDTAVYYCAADEWAVYYIGLDYDYWGQGTQVTVSS	low polyreactivity
QVQLVESGGGLVQAGGSLRLSCAASGFTFDENAMGWYRQAPGINYSGASTYYADSVKGRFTISRDNAKNTVYLQMNSLKADDTAVYYCAAEVVAQMNYWGQGTQVTVSS	low polyreactivity
QVQLVESGGGLVQAGGSLRLSCAASGFTFDENAMGWYRQAPGINYSGASTYYADSVMGRFTFSRDNAKNTVYLQMNSLKPEDTAVYYCAAEVVAQMNYWGQGTQVTVSS	low polyreactivity
QVQLVESGGGLVQAGGSLRLSCAASGFTFDFYAMGWYRQAPGKERELVAAISKNDGTTYYADSVKGRFTISRDNAKNTVYLQMNSLKPEDTAVYYCAAESGYAVYTYVSSGDYWGQGTQVTVSS	low polyreactivity
QVQLVESGGGLVQAGGSLRLSCAASGFTFDFYAMGWYRQAPGKERELVADISSSDGSTYADSVKGRFTISRDNAKNTVYLQMNSLKPEDTAVYYCAADYDNQYDFSLDDEYWGQGTQVTVSS	low polyreactivity
QVQLVESGGGLVQAGGSLRLSCAASGFTFDGNAMGWYRQAPGKERELVATITSGGNTKYADSVKGRFTISRDNAKNTVYFQMNSLKPEDTAVYYCAAAQYNYRRFNYWGQGTQVTVSS	low polyreactivity
QVQLVESGGGLVQAGGSLRLSCAASGFTFDINAMGWYRQAPGKERELVADITSGGTTDYADSVKGRFTISRDNAKNTVYLQMNSLKPEDTADYYCAAEVLDAYYGDDYWGQGTQVTVSS	high polyreactivity
QVQLVESGGGLVQAGGSLRLSCAASGFTFDIYGMGWYRQAPGKERELVASITSRSARTYYADSVKGRFTISRYNAKNTVYLQMNSLKPEDTAVYYCAADTTIKRKYLAIRGYWGQGTQVTVSS	high polyreactivity
QVQLVESGGGLVQAGGSLRLSCAASGFTFDKNVMGWYRQAPGKERELVAAISVRGGTTYYADSVKGRFTISRDNAMNTVYLQMNSLKPEDTAVYYCAARAYGPPARYDSWGQGTQVTVSS	low polyreactivity
QVQLVESGGGLVQAGGSLRLSCAASGFTFDKYAMGWYRQAPGKERELVAAISSSGGSTYYADSVKGRFTISRDNAKNTVYLQMNSLKPEDTAVYYCATGRIRWYARYDYWGHGTQVTVSS	high polyreactivity
QVQLVESGGGLVQAGGSLRLSCAASGFTFDQNAMGWYRQAPGKERELVAAISVGGGSTYYADSVKGRFTISRDNAKNTVYLQMNSLKPEDTAVYYCAASYVYPASFHYYYWGQGTQVTVSS	high polyreactivity
QVQLVESGGGLVQAGGSLRLSCAASGFTFDRNAMGWYRQAPGKERELVATISQSGTNTYYADSVKGRFTISRDNAKNTVYLQMNSLKPEDTAVYYCNARYIFYRYDYWGQGTQVTVSS	low polyreactivity
QVQLVESGGGLVQAGGSLRLSCAASGFTFDSYAMGWYRQAPGNDRELVAAISYRGGSTYYADSVKGRFSISRDNAKNTVYLQMNSLKPEDTAVFYCAARSPSAAYGSYGVYSWGQGTQVTVSS	high polyreactivity
